Our source for the percent of the protein as dimers and stoichiometry N values is article doi:10.1101/2025.11.26.690709.

Assay [1] concerns the target CHIP Y230Cfs*9, recombinant (human) (UniProt Q9UNE7). The experiment in a line: mass photometry.
For assay [2], the target named is CHIP-myc ΔStartCodon (c.3G>A) (human) (UniProt Q9UNE7). The assay is described as follows: native gel or EMSA.
Assay [3] deals with T1, CHIP-myc wild type (human), Q9UNE7.
T1 chain: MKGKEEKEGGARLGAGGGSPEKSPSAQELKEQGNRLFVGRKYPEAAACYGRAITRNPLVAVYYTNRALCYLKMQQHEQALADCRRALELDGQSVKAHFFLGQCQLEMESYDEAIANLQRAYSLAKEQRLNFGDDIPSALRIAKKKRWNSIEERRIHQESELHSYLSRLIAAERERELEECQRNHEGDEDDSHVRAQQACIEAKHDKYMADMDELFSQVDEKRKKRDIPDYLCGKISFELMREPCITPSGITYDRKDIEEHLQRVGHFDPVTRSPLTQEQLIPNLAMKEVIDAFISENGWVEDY
The experiment in a line: native gel or EMSA. The note with it: remark: other sources report otherwise.

Assay [4] has as its target T2, CHIP-myc K30A (human), Q9UNE7.
T2 chain: T1 chain with K30A
The assay is described as follows: native gel or EMSA. The note with it: remark: other sources report otherwise.

Where a chain is given by its changes, count along the chain named. Names and notes keep the numbering of the source.

In the case of “CHIP Y230Cfs*9, recombinant (from UniProt Q9UNE7-1 1-303) (natural protein)”, in assay [1], the percent of the protein as dimers turned out to be 80% and the stoichiometry N was 2.

Consider “CHIP-myc ΔStartCodon (c.3G>A) (from UniProt Q9UNE7-1 1-303) (natural protein)”, for which the stoichiometry N in assay [2] was found to be 2.

B1: CHIP-myc wild type, Q9UNE7-1 1-303 (natural protein)
chain: T1 chain
As for B1, the stoichiometry N in assay [3] was found to be 2.

B2: CHIP-myc K30A, Q9UNE7-1 1-303 (natural protein)
chain: T1 chain with K30A
Regarding B2, the stoichiometry N in assay [4] is 2.
